Assay: yeast display, Sf9 membrane polyspecificity reagent, FACS + sequencing; frameworks hold sequencing errors
Summary of the method: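 In a synthetic yeast display library (Saccharomyces cerevisiae BJ5465), nanobody expression was induced with galactose for 36–48 hours. FACS gates were set low and high (top ~1%) using anti-HA fluorescence for expression and streptavidin fluorescence for binding of the Sf9 membrane reagent. Each polyreactivity label is drawn from the gate of origin.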

| Sequence | polyreactivity (PSR sort gate) |
| --- | --- |
| QVQLVESGGGLVQAGGSLRLSCAASGSTLSHYAMGWYRQAPGKERELVAAINSNGGSTYYADSVKGRFTISRDNAKNTVYLQMNSLKPEDTAVYYCNTYFRYFSFYGRPFDYWGQGTQVTVSS | high polyreactivity |
| QVQLVESGGGLVQAGGSLRLSCAASGSTLSINAMGGYRQAAGKERELVAGITYSGGSEYYADSVKGRFSISRDNAKNNVYLQMNSMKPEDTAVYYCNKASGVYYGHLDYWRQGTQVTVSS | low polyreactivity |
| QVQLVESGGGLVQAGGSLRLSCAASGSTLSRYTMGWSRQAPGKERELVAAIRSSGGSTYYADSVKGRFTISRDNAKNTVYLQMNSLKPEDTAVYYCARTQQRTTEREHWIRYYYWGQGTQVTVSS | low polyreactivity |
| QVQLVESGGGLVQAGGSLRLSCAASGSTLSSYDMGWYRQAPGKERELVASISSGGSTYYADSVKGRFTISRDNAKNTVYLQMNSVKPEDTAVYYCLYWSYDWGQGTQVTVSS | low polyreactivity |
| QVQLVESGGGLVQAGGSLRLSCAASGSTLSVYVMGWYSQAPGKERELVAAITRGGSTNYADSVKGRFTISRDNAKNTVYLQMISLKPEDTAVYYCAARAFVYYHHGEGSRSGRYYYWGQGTQVTVSS | high polyreactivity |
| QVQLVESGGGLVQAGGSLRLSCAASGSTLTEYAMGWYRQAPGKEREFVAAISRSAGSTYYADSVKGRFTISRDNAKNTVYLQMNSLKPDDTAVYYCAVAVRVGFDYFSGQADIYYYWGQGTQVTVSS | low polyreactivity |
| QVQLVESGGGLVQAGGSLRLSCAASGSTLTEYAMGWYRQAPGKEREFVAAISRSAGSTYYADSVKGRFTISRDNAKNTVYLQMNSLKPEETAVYYCAVAVRVGFDYFSGQADIYYYWGQGTQVTVSS | low polyreactivity |
| QVQLVESGGGLVQAGGSLRLSCAASGSTLTRNAMGLYRQAPGTERELVATITATGGSTYYADSVKGRFTISRDNAKYTVYLQMNSLKTEDTAVYYCAAAYPTYRHYYWGQGTQVTVSS | low polyreactivity |
| QVQLVESGGGLVQAGGSLRLSCAASGSTLTYNAMGWYRQAPGKERELVAVISARGGRTYYADSVKGRFTISRDNAKNTVYLQMNSLKPEDTAVYYCAAVFYYSYYRITSGDYWGQGTQVTVSS | high polyreactivity |
| QVQLVESGGGLVQAGGSLRLSCAASGSTLVGNAMGWYRQAPGKERELVATIDLSDDITYYADSVKGRFTISRDKAKNTVYLQMNSLKPEDTAVYYCAAEYYLYSTYTVSYWKYDYWGQGTQVTVSS | high polyreactivity |
| QVQLVESGGGLVQAGGSLRLSCAASGSTLVIYAMGWYRQAPGKERELVAAINFSDGSTSYADSVKGRFSISRDNAKNTVYLQMNRLKPEDTAVYYLGQGTQVTVSS | low polyreactivity |
| QVQLVESGGGLVQAGGSLRLSCAASGSTLVIYAMGWYRQAPGKERELVAAINFSDGSTSYADSVKGRFTISRDNAKNTVYLQMNSLKPEDTAVFYWGQGTQVTVSS | low polyreactivity |
| QVQLVESGGGLVQAGGSLRLSCAASGSTLVIYAMGWYRQAPGKERELVAAINFSDGSTSYADSVKGRFTISRDNSKTTVYFQMNSLKPEDTAVYYWGQGTQVTVSS | low polyreactivity |
| QVQLVESGGGLVQAGGSLRLSCAASGSTLVRNAMGWSRPAPGKERDLVAAITSSGGRTYYADSVKGRFTISRDTAKNTVYLQMNSLKPEDTAVYYCNRVSRYYLYDYWGQGTQVTVSS | high polyreactivity |
| QVQLVESGGGLVQAGGSLRLSCAASGSTLVTYAMGWSRQAPGTERELVAAISYSGGSTYADSVKGRFTISRDNAKNTVYLQMNSLKPEDTAVYYCNSDTSVDVRFDYWGQGTQVTVSS | low polyreactivity |
| QVQLVESGGGLVQAGGSLRLSCAASGSTLVYNDMGWYRQAPGKERELGATITGTDSTYYADSVKGRFTISRDNAKNTVYLQMNSLKPEDTADCAADRAASRPDYDYWGQGTQVTVSS | low polyreactivity |
| QVQLVESGGGLVQAGGSLRLSCAASGSTLVYNDMGWYRQAPGKERELVAAISSGASTYADSVKGRFTISRDNAKNTVYLQMNSLKPEDTAVYYCAKDIKLGPVGHSKYHRYDYWGQGTQVTVSS | low polyreactivity |
| QVQLVESGGGLVQAGGSLRLSCAASGSTLVYYDMGWYRQAPGKEREFVAAITISGGRTYYADSVKGRFTISRDNAKNTVYLQMNSLKPEDTAVYYCAADTDRRSPFDYWGQGTQVTVSS | high polyreactivity |
| QVQLVESGGGLVQAGGSLRLSCAASGSTLYDYAMGWYRQAPGKERELVAAINGSGGSTYYADSVKGRFTISRDNAKNTVYLQMNSLKPEDTAVYYCAAATTHRRRYGYWGQGTQVTVSS | low polyreactivity |
| QVQLVESGGGLVQAGGSLRLSCAASGSTLYDYTMGWYRQAPGKERELVAAIRVSGARTFYADSVKGRFTISRDNAKNTVYLQMNSLKPEDTAVYYCAARWYIANPLSPSDYWGQGTQVTVSS | low polyreactivity |
| QVQLVESGGGLVQAGGSLRLSCAASGSTLYGNVMGWYRQAPGKERELVATINRGGSTNYADSVKGRFTISRDNAKNTVYLQMNSLKPEDTAVYYCAARGFAWYYLEDYWGQGTQVTVSS | low polyreactivity |
| QVQLVESGGGLVQAGGSLRLSCAASGSTLYGYAMGWSRQAPGKERELVAAISDSGGNTYYADSVKGRFTISRDNAKNTGYLQMNSLKPEDTAVYYCAAEDIVFPYDYWGQGTQVTVSS | low polyreactivity |

| Sequence | polyreactivity (PSR sort gate) |
| --- | --- |
| QVQLVESGGGLVQAGGSLRLSCAASGSTLYHSTMGWYRKAPGKETELVAAITWSGGSTSYADSVKGRFTISRDNAKNTVYLQMNSLKPEDTAVYYCAADDTPDDSDYWGQGTQVTVSS | low polyreactivity |
| QVQLVESGGGLVQAGGSLRLSCAASGSTLYKYAMVWYRQAPGKEREFVAAITRSGGSTYYADSVKGRFTISRDNAKNTVDLQMNSLKPEDTAVYYCAARVRVYSGWLYNYWGQGTQVTVSS | high polyreactivity |
| QVQLVESGGGLVQAGGSLRLSCAASGSTLYRYAMGWYRQAPGKERELVAAISSSGGSTYYADSVKGRFTISRDNAKNTVYLQMNSLKPEDTAVYYCAAYFSTAPKSQYKLDYWGQGTQVTVSS | high polyreactivity |
| QVQLVESGGGLVQAGGSLRLSCAASGSTLYSYAMGWYRQAPGKERELVAAIRRDSGRTYYADSVKGRFTISRDNEKNTVYLQMNSLKPEDTAVYYCAAAYRLGYHKYYYWGQGTQVTVSS | high polyreactivity |
| QVQLVESGGGLVQAGGSLRLSCAASGSTLYVYAMGWYRQAPGKEREFVADISWSGGSTYYADSVKGRFTISRDNAKNTVYLQMNILKPEDTAVYYCNADFTDSYWSRYDYWGQGTQVTVSS | low polyreactivity |
| QVQLVESGGGLVQAGGSLRLSCAASGSTLYVYAMGWYRQAPGKERELVAAITRGSRTSYADSVKGRFTISRDNAKNTVYLQMNSLKPEDTAVYYCNADTILWFLPPQKRDYWGQGTQVTVSS | low polyreactivity |
| QVQLVESGGGLVQAGGSLRLSCAASGSTLYVYTMGWYRQAPGKERELVAGITRGGSTYYADSVKGRFTISRDNAKNTVYLQMNSLKPEDTAVYYCAARSSYREYYWGQGTQVTVSS | high polyreactivity |
| QVQLVESGGGLVQAGGSLRLSCAASGSTLYVYTMGWYRQAPGKERELVATINTSGSRTYYADSLKGRFTISRDIAKNTVYLQMNSLKPEDTAVYYCNARSSRWFYGYNYWGQGTQVTVSS | high polyreactivity |
| QVQLVESGGGLVQAGGSLRLSCAASGSTLYWYAMGWYRQAPGKERELVASISWSGGSTYYADSVKGRFTISRDNAKITVYLQMNSLKPEDTAVYYCDAVRHYHGTWYDYWGEGTQVTVSS | high polyreactivity |
| QVQLVESGGGLVQAGGSLRLSCAASGSTMDYNAMGWYRQAPGKERELVAAITNGGSTTYADSVKGRFTISRDNAKNTVYLQMNSLNPEDTAVYYCAAKWYPQLWFWKFLTYNYWGQGPQVTVSS | low polyreactivity |
| QVQLVESGGGLVQAGGSLRLSCAASGSTNSQYAMGWYRQAPGKERELVAAITTSDGSTNYADSVKGRFTISRDNAKNTVYLQMNSLKPEDTAVYYCNTEYFYFSFGYWGQGTQVTVSS | low polyreactivity |
| QVQLVESGGGLVQAGGSLRLSCAASGSTRYYMGWYRQAPGKEREMVAAISKSGGTTYYADSVKGRFTISRDNAMTTVYLQMTSLKPEDTAVYYCAAQRSRSYTYDYWGQGTQVTVSS | high polyreactivity |
| QVQLVESGGGLVQAGGSLRLSCAASGSTSDENAMGWYRQAPGKERELVASITVSGGSTSYADSVKGRFTISRDNAKNTVYLQMNSLKPEDTAVYYCNTDFGQAHTLSWYEDMDYWGQGTQVTVSS | low polyreactivity |
| QVQLVESGGGLVQAGGSLRLSCAASGSTSDINAMGWYRPAPGKERELVAVITFSGGTTNYADSVKGRFTISRDNAKNTVYLQMNSLKPEDTAVYYCNADTLTTTRRFNPYDYWGQGTQVTVSS | low polyreactivity |
| QVQLVESGGGLVQAGGSLRLSCAASGSTSDINAMGWYRQAPGKERELVAVITFSGGSTNYADSVKGRFTISRDNAKNTVYLQMNSLKPEDTAVYYCSTSGQLYYSRNFDYWGQGTQVTVSS | low polyreactivity |
| QVQLVESGGGLVQAGGSLRLSCAASGSTSDSNAMGWSRQAPGKERELVAAITYSGDSTYYAYSVKGRFTISRDNAKNTVYLQMNSLKPEDTAVYYCATETYPSYEVDYWGQGTQVTVSS | low polyreactivity |
| QVQLVESGGGLVQAGGSLRLSCAASGSTSFLYALGWYRQAPGKERELVAAISRSGGTTYYADSVKGRFTISRDNAKNTVYLQMNSLKPEDTAVYYCNAVGPKRYDYWGQGTQVTVSS | high polyreactivity |
| QVQLVESGGGLVQAGGSLRLSCAASGSTSKGYAMGGYRQAPGKDRELVAAISAGGGRTYYADSVKGRFTISRENAKNTVYLQMNSLKPEDTAVYYCANAGTIYQSPREYWGQGTQVTVSS | high polyreactivity |
| QVQLVESGGGLVQAGGSLRLSCAASGSTSKSYTMGWYRQAPGKERELVAAISYSGVSTYYADSVKGRFTISRDNAKNTVYLQMNSLKPEDTAVYDGAADWVPRQYPGRGGYWGQGTQVTVSS | high polyreactivity |
| QVQLVESGGGLVQAGGSLRLSCAASGSTSLYYAMGWYRQAPGKEREFVAAITWSGGSTYYADSVKGRFTISRDNAKNTVYLQMNSLKPEDTAVYYCAARSYGYSAGYYWGQGTQVTVSS | high polyreactivity |
| QVQLVESGGGLVQAGGSLRLSCAASGSTSPTNVMGWYRQAPGKERELVAAISYSGGRTYYADSVKGRFTISRDNAKNTVYLQMNSLKPEDTAVYYCNAGKRGSTYYYWGQGTQVTVSS | high polyreactivity |

Reference: the nanobody polyreactivity screen of Harvey et al. (2022)
